Results from patent US20240197877A1 (published 2024).
Positions count from the first letter of the chain named.

Molecular target: T1, MYO1G (HA-2 SNP; MYO1G(M) variant) peptide on HLA-A*02:01 (human)
T1 peptide: YIGEVLVSM
Test: multimer staining

B1: HA2-MJ13-SP43 (TCR, V domains shown)
Valpha: QKEVEQNSGPLSVPEGAIASLNCTYSDRGSQSFFWYRQYSGKSPELIMFIYSNGDKEDGRFTAQLNKASQYVSLLIRDSQPSDSATYLCAVKGAGYSTLTFGKGTMLLVSP
Vbeta: NAGVTQTPKFQVLKTGQSMTLQCAQDMNHEYMSWYRQDPGMGLRLIHYSVGAGITDQGEVPNGYNVSRSTTEDFPLRLLSAAPSQTSVYFCASSDGGALAYFGPGTRLTVL
B1: no recognition.

B2: HA2-MJ14-SP4 (TCR, V domains shown)
Valpha: B1 Valpha with K92R, G93R, A94S
Vbeta: NAGVTQTPKFQVLKTGQSMTLQCAQDMNHEYMSWYRQDPGMGLRLIHYSVGAGITDQGEVPNGYNVSRSTTEDFPLRLLSAAPSQTSVYFCASSLGAEAFFGQGTRLTVV
B2: no recognition.
